US20050282254

Legend:
[1] = target: recombinant protein of full size thioredoxine domain, protease recognition site and truncated C-terminal region (40 aa residues) of thioredoxin [thioredoxin: P0AA25]
substrate with 6/R5 site = target: T1, substrate with 6/R5 site
T1 chain: LGRAGARIFSS

substrate with 6/S5 site = target: T2, substrate with 6/S5 site
T2 chain: LGRAGASIFSS

substrate with 6/G5 site = target: T3, substrate with 6/G5 site
T3 chain: LGRAGAGIFSS

B1: Pro39 (C-terminal cysteine protease domain of Semliki Forest virus non-structural protein nsP2) (protein)
chain: KVIEGPAAPVDAFQNKANVCWAKSLVPVLDTAGIRLTAEEWSTIITAFKEDRAYSPVVALNEICTKYYGVDLDSGLFSAPKVSLYYENNHWDNRPGGRMYGFNAATAARLEARHTFLKGQWHTGKQAVIAERKIQPLSVLDNVIPINRRLPHALVAEYKTVKGSRVEWLVNKVRGYHVLLVSEYNLALPRRRVTWLSPLNVTGADRCYDLSLGLPADAGRFDLVFVNIHTEFRIHHYQQCVDHAMKLQMLGGDALRLLKPGGSLLMRAYGYADKISEAVVSSLSRKFSSARVLRPDCVTSNTEVFLLFSNFDNGKRPSTLHQMNTKLSAVYAGEAMHTAGC
cleavage efficiency, Pro39, SDS-PAGE [1]: non structured Ter substrate is poorly cleaved while Trx substrate is effectively cleaved | cleavage specificity, mass-spectrometry (substrate with 6/R5 site): cleavage specificity was preserved for all of these modified recognition sites (demonstrated by mass-spectrometry) | cleavage specificity, mass-spectrometry (substrate with 6/S5 site): cleavage specificity was preserved for all of these modified recognition sites (demonstrated by mass-spectrometry) | cleavage specificity, mass-spectrometry (substrate with 6/G5 site): cleavage specificity was preserved for all of these modified recognition sites (demonstrated by mass-spectrometry)
